Data taken from patent US9463249B2, “Crystalline insulin-conjugates” (SmartCells, Inc., priority 2009, dated 2016).

Assays:
[1] = tested on: lectins; test: Relative lectin binding affinities of saccharide ligands (FIG. 1); settings: four sugars shown in FIG. 1
[2] = Glucose-responsive PK under constant i.v. infusion with i.p. glucose injection at 240 min; design: species or system Sprague-Dawley rats; settings: rat, in vivo, iv
[3] = rat, in vivo, iv
Description: To determine the elimination rate in the presence of elevated glucose levels, one hour before the start of the experiment one rat cannula was connected to a syringe infusion pump containing a sterile 50% w/v glucose solution. The pump infusion rate was adjusted by the experimenter to ensure that the blood glucose levels in the animal remained above 300 mg/dL at all times during the experiment. Blood glucose was measured using commercially available test strips (Precision Xtra, Abbott Laboratories, Abbott Park, Ill.). […]
(§1) Throughout the experiment, blood glucose was measured using commercially available test strips (Precision Xtra, Abbott Laboratories, Abbott Park, Ill.). Blood from each timepoint was centrifuged at 4 C to collect the serum, and serum insulin or serum conjugate concentrations were subsequently measured with a commercially available ELISA kit (Iso-Insulin ELISA, Mercodia, Uppsala, Sweden). […]
as §1

| Compound | lectin binding affinity relative to the other sugars [1] | hypoglycemia prior to glucose injection [2] | effect of sugars on elimination rate, in words [3] |
| --- | --- | --- | --- |
| NCCO[C@H]1O[C@H](CO[C@H]2O[C@H](CO)[C@@H](O)[C@H](O)[C@@H]2O)[C@@H](O)[C@H](O[C@H]2O[C@H](CO)[C@@H](O)[C@H](O)[C@@H]2O)[C@@H]1O [AETM, Man (α-1,3)-Man(α-1.6)-α-1-aminoethylmannopyranoside] | highest affinity of the four sugars shown | – | – |
| RHI: recombinant human insulin (MW=5808 Da, Sigma Aldrich), unconjugated control | – | causes significant hypoglycemia prior to glucose injection | not affected in the presence of sugars |
